Source: publication PMC4558601, “Architecture of the Synaptophysin/Synaptobrevin Complex: Structural Evidence for an Entropic Clustering Function at the Synapse” (Scientific Reports, 2015)

Biological target: the molecule itself
Test: SEC + other: SDS-PAGE densitometry and western blot of the co-purified native complex; native SYP/VAMP2 complex purified from calf brain synaptic vesicles in high cholesterol; Sephacryl S-300 in 20 mM NaH2PO4 pH 6.8, 0.2% Brij-35, 0.1% cholesterol, 40 mM sucrose; fractions analysed by SDS-PAGE, silver stain, western blot, densitometry

B1: synaptophysin (SYP), native, from calf brain (natural protein, bovine (endogenous in calf brain), UniProt P20488 1-313, looked up)
chain: MLLLADMDVVNQLVAGGQFRVVKEPLGFVKVLQWVFAIFAFATCGSYSGELQLSVDCANKTKSDLNIEVEFEYPFRLHEVYFEAPTCQGDPKKIFLVGNYSSSAEFFVTVAVFAFLYSMGALATYIFLQNKYRENNKGPMLDFLATAVFAFMWLVSSSAWAKGLSDVKMATDPENIIKGMHVCHQPGNTCKELRDPVTSGLNTSVVFGFLNLVLWVGNLWFVFKETGWAAPFLRAPPGAPEKQPAPGDAYGQAGYGQGPGGYGPQDSYGPQGGYQPDYGQPASSGGGGYGPQGDYGQQGYGPQGAPTSFSNQM
notes: synaptophysin (SYP), bovine, native protein isolated from calf brain synaptic vesicles together with VAMP2; 4-pass integral membrane protein; Endogenous protein, co-purified with VAMP2 as a native complex; source: purified from calf brain synaptic vesicles (Triton X-100 extract with cholesterol; hydroxyapatite/celite flow through, anion exchange, size exclusion)
  stoichiometry N: 6
